Data from US20260209334A1 (MAX PLANCK GESELLSCHAFT ZUR F RDERUNG DER WISSENSCHAFTEN E V, published 2026).

T1: human IL-17F with C-terminal Avi-tag, biotinylated, immobilized on BLI sensors (human, UniProt Q96PD4 31-163, biotin on the C-terminal Avi-tag (BirA))
T1 construct: also called biotinylated IL-17F; not shown: C-terminal Avi-tag
T1 sequence: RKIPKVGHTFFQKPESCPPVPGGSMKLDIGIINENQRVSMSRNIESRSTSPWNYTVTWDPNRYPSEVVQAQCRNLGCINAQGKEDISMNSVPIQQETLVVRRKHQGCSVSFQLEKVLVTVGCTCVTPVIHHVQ

T2: recombinant human IL-17F (produced in HEK cells, Proteintech HZ-1116) (human, UniProt Q96PD4 31-163)
T2 sequence (looked up): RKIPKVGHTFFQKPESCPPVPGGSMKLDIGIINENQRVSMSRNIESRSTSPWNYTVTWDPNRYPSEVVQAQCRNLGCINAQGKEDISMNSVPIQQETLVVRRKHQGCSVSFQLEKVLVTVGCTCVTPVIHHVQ

T3: human IL-17F homodimer, bacterially expressed construct (residues 39-163 with GSEGE linker) (human, UniProt Q96PD4 39-163)
T3 construct: also called IL-17F dimer
T3 chain: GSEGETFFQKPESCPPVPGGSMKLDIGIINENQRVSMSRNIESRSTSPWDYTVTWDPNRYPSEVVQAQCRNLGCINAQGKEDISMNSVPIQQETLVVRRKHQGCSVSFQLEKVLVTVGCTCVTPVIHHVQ

T4: human IL-17A homodimer, bacterially expressed construct (residues 40-155 with GSEDS spacer) (human, UniProt Q16552 40-155)
T4 chain: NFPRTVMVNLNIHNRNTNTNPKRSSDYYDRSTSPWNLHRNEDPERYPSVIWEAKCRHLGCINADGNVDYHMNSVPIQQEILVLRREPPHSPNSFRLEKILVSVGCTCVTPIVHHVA


Key:
[1] = biological target: T1, human IL-17F with C-terminal Avi-tag, …; assay: BLI, biotinylated IL-17F immobilized, monovalent VHH as analyte
[2] = biological target: recombinant human IL-17A (produced in HEK cells, Proteintech HZ-1113) (human, UniProt Q16552 24-155); assay: cell-based or functional assay
Chain of recombinant human IL-17A (produced in HEK cells, Proteintech HZ-1113) (Q16552 24-155 limits assumed): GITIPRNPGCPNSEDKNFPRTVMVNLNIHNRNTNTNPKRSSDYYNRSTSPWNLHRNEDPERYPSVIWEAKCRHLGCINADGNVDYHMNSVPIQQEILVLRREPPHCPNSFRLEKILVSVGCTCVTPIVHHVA

[3] = biological target: recombinant human IL-17A/F (produced in CHO cells, R&D Systems 5837-IL) (human, UniProt Q16552 24-155; Q96PD4 31-163, limits assumed); assay: cell-based or functional assay
Chain of recombinant human IL-17A/F (produced in CHO cells, R&D Systems 5837-IL) (Q16552 24-155 limits assumed, chain 1 of 2, one chain of several): as the sequence (Q16552 24-155 limits assumed) above

[4] = biological target: T2, recombinant human IL-17F (produced in …); assay: cell-based or functional assay
[5] = biological target: T5, human IL-17A with C-terminal Avi-tag, biotinylated, immobilized on BLI sensors (human, UniProt Q16552 24-155, biotin on the C-terminal Avi-tag (BirA)); assay: BLI, biotinylated IL-17A immobilized, monovalent VHH as analyte
T5 construct: also called biotinylated IL-17A; not shown: C-terminal Avi-tag

[6] = biological target: T5, human IL-17A with C-terminal Avi-tag, …; assay: BLI, biotinylated IL-17A immobilized on streptavidin sensors, monovalent VHH as analyte (25, 50, 100 nM), mass transport fit
[7] = biological target: T5, human IL-17A with C-terminal Avi-tag, …; assay: BLI, biotinylated IL-17A immobilized on streptavidin sensors, monovalent VHH as analyte (20, 100 nM), 2:1 heterogenous fit, low affinity component
[8] = biological target: T1, human IL-17F with C-terminal Avi-tag, …; assay: BLI, biotinylated IL-17F immobilized, monovalent VHH as analyte; 2:1 heterogenous model, high affinity component
[9] = biological target: T5, human IL-17A with C-terminal Avi-tag, …; assay: BLI, biotinylated IL-17A immobilized, monovalent VHH as analyte; 2:1 heterogenous model, high affinity component
[10] = biological target: T3, human IL-17F homodimer, bacterially …; assay: BLI, biotinylated VHH immobilized on streptavidin sensors, IL-17 as analyte (10, 20, 40 nM), mass transport fit; apparent value, avidity possible;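 note: wavelength shift (nm) signal, 800 s association then 800 s dissociation, reference from parallel sensors without VHH, avidity from immobilized VHH may lower apparent off-rates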
[11] = biological target: T4, human IL-17A homodimer, bacterially …; assay: as above
[12] = biological target: T6, human IL-17A/F heterodimer, bacterially expressed construct (human, UniProt Q16552 40-155; Q96PD4 39-163, limits assumed); assay: as above
T6 construct: IL-17A unit with N68D, IL-17F unit with N83D and C137S, both with GSEDS spacer; already in the entries

[13] = biological target: T6, human IL-17A/F heterodimer, bacterially …; assay: BLI, VHH immobilized, IL-17 as analyte; apparent KD with avidity; µM as printed (Table 3 uses pM)

Binder	Kd [1] [nM]	Neutralization potency, ranking from 1 = the best to 4 (HEK-Blue IL-17 reporter cells) [2] [rank]	Neutralization potency, ranking from 1 = the best to 4 (HEK-Blue IL-17 reporter cells) [3] [rank]	Neutralization potency, ranking from 1 = the best to 4 (HEK-Blue IL-17 reporter cells) [4] [rank]	Kd [5] [nM]	further results
VHH662 (VHH, Control VHH of Ablynx, disclosed in WO2012156219) VHH: EVQLVESGGGSVQAGDSLRLSCAASGRANSINWFGWFRQTPGKEREFVAGIRWSDAYTEYANSVKGRFTISRDNAKNTVDLQMDSLKPEDTAVYYCVLDLSTVRYWGQGTQVTVSS	16	2	1	4	0.115	–
Bm43B02 (VHH, Class A, second generation) VHH: QVQLVESGGGLVQAGGSLNLSCVISRRTPSGYAMGWFRQASGKEREFVAAISWIGGGAVYADSVKGRFTMSRDNAKNTVYLQMNSLKPEDTAVYYCNDMPYGLDTTMDDYDYWGQGTLVTVSS	0.075	2	2	2	0.13	–
Bm44B11 (VHH, Class A, second generation) VHH: QVQLVESGGGLVQAGGSLNLSCVISRRTPSGYAMGWFRQASGKEREFVAAISWIGGGAVYADSVKGRFTMSRDNAKNTVYLQMNSLKPEDTAVYYCNDMPYGLDTTMDDYDYWGQGTQVTVSS	0.09	3	1	1	0.15	–
Bm42B11 (VHH, Class A, second generation) VHH: QVQLVESGGDLVQAGGSLRLSCSVSGLRVSSYAMGWFRQAPGKEREFVAAISWVGGDTRYADSVKGRFTMSRDNAKKQVYLEMNSLKPEDTAVYYCNDMPYGMETRMDDYASWGQGTQVTVSS	2	1	1	2	≤ 0.01	–
Re42H11 (VHH, Class A, first generation; For the crystal it was made with a His14-ScSUMO tag that was cleaved off) VHH: QVQLVESGGGLVQAGGSLRLSCAASGLTASSYAMGWFRQAPGKEREFVAAISWISGGTKYADSVKGRFTMSRDNAKKQVYLEMNSLKPEDTAVYYCNDMPYGLDTRMDEYAYWGQGTQVTVSS	–	–	–	–	–	Kd [6]: 1 nM
Re42B03 (VHH, Class A, first generation) VHH: QVQLVESGGGLVQAGGSLRLSCAASGLTGSSYAMGWFRQAPGKEREFVAAISWISGGTKYTDSVKDRFTMSRDYAKKQVYLEMNSLKPEDTAVYYCNDMPYGLDTRMDEYVYWGQGTQVTVSS	–	–	–	–	–	Kd [6]: 0.7 nM
Bm42A09 (VHH, Class B, second generation) VHH: QVQLVESGGGLVRTGGSLRLSCSVSGDISSQSAMGWYRQVPGRQRELVAMIHTTKGDTYYADSVKGRFTISRINANNTIYLQMNNLKPEDTAIYYCTHNEPGDLYMGQGTLVTVSS	–	2	1	1	–	KD2 [7]: 300 nM; Kd [8]: ≤ 0.01 nM; Kd [9]: 0.8 nM
Bm42A03 (VHH, Class C, second generation) VHH: QVQLVESGGGLVQPGGSLRLSCVASGFTFSSFAMSWYRQDPGKERKLVAAITNDGGTTFYSDLVKGRFTISRDNTKNTVYLQMNNVKPDDAAVYYCMAVRGLYGSNWYDYPFELWGQGTQVTVSS	–	1	1	1	–	Kd [8]: 0.35 nM; Kd [9]: 0.15 nM
Bm44G10 (VHH, Class C, second generation) VHH: QVQLVESGGGLVQPGGSLRLSCVASGFTFSSFAMSWYRQDPGRERKLVAAITNDGGTTFYSDLVKGRFTISRDNTKNTVYLQMNNVKPDDAAVYYCMAVRGLYGSNWYDYPFELWGQGTQVTVSS	–	1	1	3	–	Kd [8]: 0.35 nM; Kd [9]: 0.2 nM
Bm45G07 (VHH, Class D, second generation) VHH: QVQLVESGGGFVQAGGSLKLSCSVSGNTFITNHMGWFRQPPGKGREFVAGIRWSDGSTFYGDSVRGRFTISGDNAKHTLYLQMNSLKPDDTAVYYCYIDSGSDRYYGQGTLVTVSS	4	1	1	2	0.06	–
Re42B04a (VHH, Class A; Monovalent VHH) VHH: QVQLVESGGGLVQVGGSLRLSCEVSGLPVSSYAMGWFRQAPEKEREFVAAISWIGGDSRYAHFVKGRFTISRDNAKNTVHLQMDSLKPEDTAVYYCNDMPYGLDTRMDEYEYWGQGTQVTVSS	0.5	1	1	2	0.05	Kd [6]: ≤ 0.01 nM
Re42B03 with C-terminal Avi-Biotin-tag, biotinylated (VHH, biotin on the C-terminal Avi-tag (BirA), not shown: C-terminal Avi-Biotin-tag) VHH: QVQLVESGGGLVQAGGSLRLSCAASGLTGSSYAMGWFRQAPGKEREFVAAISWISGGTKYTDSVKDRFTMSRDYAKKQVYLEMNSLKPEDTAVYYCNDMPYGLDTRMDEYVYWGQGTQVTVSS	–	–	–	–	–	Kd [10]: ≤ 0.01 nM; koff [10]: ≤ 1e-07 s⁻¹; kon [10]: 260000 M⁻¹ s⁻¹; Kd [11]: ≤ 0.01 nM; koff [11]: ≤ 1e-07 s⁻¹; kon [11]: 120000 M⁻¹ s⁻¹; Kd [12]: ≤ 0.01 nM; koff [12]: ≤ 1e-07 s⁻¹; kon [12]: 340000 M⁻¹ s⁻¹
Re42H11 with C-terminal Avi-Biotin-tag, biotinylated (VHH, biotin on the C-terminal Avi-tag (BirA), not shown: C-terminal Avi-Biotin-tag) VHH: QVQLVESGGGLVQAGGSLRLSCAASGLTASSYAMGWFRQAPGKEREFVAAISWISGGTKYADSVKGRFTMSRDNAKKQVYLEMNSLKPEDTAVYYCNDMPYGLDTRMDEYAYWGQGTQVTVSS	–	–	–	–	–	Kd [10]: ≤ 0.01 nM; koff [10]: ≤ 1e-07 s⁻¹; kon [10]: 270000 M⁻¹ s⁻¹; Kd [11]: ≤ 0.01 nM; koff [11]: ≤ 1e-07 s⁻¹; kon [11]: 120000 M⁻¹ s⁻¹; Kd [12]: ≤ 0.01 nM; koff [12]: ≤ 1e-07 s⁻¹; kon [12]: 360000 M⁻¹ s⁻¹
Re42B04 with C-terminal Avi-Biotin-tag, biotinylated (VHH, biotin on the C-terminal Avi-tag (BirA), not shown: C-terminal Avi-Biotin-tag) VHH: QVQLVESGGGLVQVGGSLRLSCEVSGLPVSSYAMGWFRQAPEKEREFVAAISWIGGDSRYAHFVKGRFTISRDNAKNTVHLQMDSLKPEDTAVYYCNDMPYGLDTRMDEYEYWGLGTQVTVSS	–	–	–	–	–	Kd [13]: ≤ 20000 nM; Kd [10]: ≤ 0.01 nM; koff [10]: ≤ 1e-07 s⁻¹; kon [10]: 140000 M⁻¹ s⁻¹; Kd [11]: ≤ 0.01 nM; koff [11]: ≤ 1e-07 s⁻¹; kon [11]: 110000 M⁻¹ s⁻¹; Kd [12]: ≤ 0.01 nM; koff [12]: ≤ 1e-07 s⁻¹; kon [12]: 240000 M⁻¹ s⁻¹
Bm18B05 (VHH, Class A, first generation) VHH: QVQLVESGGGLVQPGGSLRLSCAVSGRTFSSYAMGWFRRPPGKEREFVAAISWSGGDTKYADFVTDRFTISRDDAKSTVYLQMNSLKPEDTAVYYCNDMPYGLDTRMDEYEYWGQGTQVTVSS	–	–	–	–	–	Kd [6]: 2 nM
